Drawing on a protein production outcome set (Wang et al. 2014), this text covers protein production for 13 sequences.
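Note: failed if final PepcDB status was selected cloned or expressed and not failed if soluble or beyond.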

The series is described as follows: label from the status in PepcDB records.
For “MASHVDLLTELQLLEKVPTLERLRAAQKRRAQQLKKWAQYEQDLLHRKRKHERKRSTGGRRKKVSFEASVALLEASLRNDAEEVRYFLKNKVSPDLCNEDGLTALHQCCIDNFEEIVKLLLSHGANVNAKDNELWTPLHAAATCGHINLVKILVQYGADLLAVNSDGNMPYDLCEDEPTLDVIETCMAYQGITQEKINEMRAAPEQKMISDIHCMIAAGQDLDWIDGQGATLLHIAGANGYLRAAELLLDHGVRVDVKDWDGWEPLHAAAFWGQMPMAELLVSHGASLSARTSMDEMPIDLCEEEEFKVLLLELKHKHDVIMKSQLRHKSSLSRRTSSAGSRGKVVRRASLSDRTNLYRKEYEGEAILWQQRSAAEEQRTSTYNGDIRETRTDQENKDPNPRLEKPVLLSEFSTKISRGELDGPVENGLRAPVSTYQYALANGDIWKMHEIPDYSMAYGNPGMADVPPPWSGFKEQSPQTLLELKRQRAAAKLLSHPFLSTHLGSSVARSGEGSSEGKAPLIGGRTSPYSSNGTSVYYTVTSGDPPLLKFKAPMEEMEEKVHGCCRIS”, the protein production result was “failed”.
The result for “MASILRWFVRAFALALAAQSVCANPRPEVIDTIAATPAGLVAVTEDGTGLWSLVDGSRPAWQARPRAPNARGDMQLEPVAVSPDGRWLAATRGYKDPVIVVRDAATGRAVREIKAPRSGVDGLRFAGDDVLVALYAGRLAAVWEASSGKARGVFELPAAPRQVAASADGRYLAVGQDKQRVTVYDLEGGKSLGNFELGSIASKSHAVPTHDILFMAFAYDGTVVVHHATGYIQRFDPRRAAPAALLGSQDIPLRGVATSLSPDRRVLLTADRPGALTLYRLDQPAPARSALRSALGEVTASAWEAGSRRFAVADNQGRVELWDARKPAGAALEGKHAGAIEQLAFASAGRFLVSSGRDGSIRVRETATGQEAVRLVGLGETGWVSMMPAGYFHSSGLPAEAAINVRIGSDVYGIDNFRERYYRPDILSAALQGRSVRPQRTLADTRPPPQVRADPVPASLAADTYTLVLQLTDQGGGIGDVRVLRNDVAVANHAADAQAAAGSQRRSIPVKLAAGRNEIKVIAFNAENSLSSKPLRLTLDVRATQPEKPVLHAMIVGINEFGEASLNLQYAVNDANAIARELRERTRGLYRDVRIELLTTPQQTSRASLIESLRRYQQLDAGDVFMFYVSTHGAVMGDKPVDQEYFLIPSNAKSPVFAHDAISQHELKRLFSSIPAGKKLLLFDTCFAGALGEALYQPAVERGVAENGAVNVLATAIGSTTLAASAPLEMSYEGYQEHGTFTWVVLQAFRGKAGGGKGNVVLTADLARYVAREVPALARRLQREQNPAVYATGQPFPVVAGR” reads “failed”; that for “MASKKKPIDSRVDYSLILPVFFLVLIGLFSVYTATIHDYPSKIMVVMGQQLIWLIMGAAISFVVMLFSTEFLWKITPYLYGLGLILMIFPLIFYSPELVASTGAKNWVSIGSVTLFQPSEFMKISYILILARLTVTFKQKYKEKNLQEDGKLLLWFALLTLPIMILLALQKDLGTAMVFMAILAGLVLIAGISWQIILPVVGAVALIVALFMVVFLIPGGKEFLYHHMGVDTYQINRLSAWLNPFDYAGSIAYQQTQGMISIGSGGLFGKGFNIVELPVPVRESDMIFTVIAENFGFIGGSIVLALYLILIYRMLRVTFASNNLFYTYISTGFIMMILFHIFENIGAAVGILPLTGIPLPFISQGGSSLISNLIGVGLVLSMSYQNSLNQEKATERYFAHIKKESLTS”, “failed”; that for “MASKSVHADITLLLDMEGVIREATLSPTMAAESVDGWLGRRWSDIAGAEGGDKVRRMVEDARRSGISAFRQINQPFPSGVEIPIEFTTMLLGDRTGMIAVGKNMQAVTELHSRLIAAQQAMERDYWRLRELETRYRLVFDAAADAVMIVSAGDMRIVEANRAAVNAISRVERGNDDLAGRDFLAEVAAADRDAVRDMLAQVRQRGTALSVLVHLGRYDRAWMLRGSLMSSERRQVFLLHFTPVTTTPAIDDVDDDAVLRGLIDRIPDGFVALDSEGVVRHANQAFLDLVQIGSKPAAVGRSLGVWMGRPGADLSSLLTLLRRYKTVRLFQTTIRGELGTETEVEVSAVDGEDDQYIGVLMRNVARRLDAADDHDALRQALGPISKQLGRSSLRKLVKNAVSIVEQHYVKEALLRSKGNRTATAELLGLSRQSLYAKLNCYGFDDKGVVASAADGAEGASDDAED”, “failed”.
Turning to “MASLCSARFLPSPSLDILSTKTKISSDSRSLGCSSSRVFAFSSVHRSSSRRNRNQLQVVSMAPEEEKLTRRNPLDFPIEWERPKPGRRPDIFPKFSPMKTPLPPPMPYDPPEEDEEEEEKKEEEEENPDQEEEEQPEKQQ”, the protein production entry is recorded as “failed”.
The result for “MASLQLCDGYLLFKPSVSPRFLSQRISHRLIPKASSSPPPSPSPSSSSSSLSFSRRELLYQSAAVSLSLSSIVGPARADEQLSEWERVFLPIDPGVVLLDIAFVPDEPSRGFLLGTRQTLLETKDGGSTWNPRSIPSAEEEDFNYRFNSISFKGKEGWIIGKPAILLYTADAGENWDRIPLSSQLPGDMVFIKATEDKSAEMVTDEGAIYVTSNRGYNWKAAIQETVSATLNRTVSSGISGASYYTGTFSAVNRSPDGRYVAVSSRGNFFLTWEPGQPYWQPHNRAVARRIQNMGWRADGGLWLLVRGGGLYLSKGTGITEEFEEVPVQSRGFGILDVGYRSEEEAWAAGGSGILLRTRNGGKSWNRDKAADNIAANLYAVKFVDDKKGFVLGNDGVLLRYVG” reads “failed”; that for “MASLRLPAQLVTRGNLIHHNSSSSSSGRLSWRRSLTPENTIPLFPSSSSSSLNRERSIVVPVTCSAAAVNLAPGTPVRPTSILVVGATGTLGRQIVRRALDEGYDVRCLVRPRPAPADFLRDWGATVVNADLSKPETIPATLVGIHTVIDCATGRPEEPIKTVDWEGKVALIQCAKAMGIQKYVFYSIHNCDKHPEVPLMEIKYCTEKFLQESGLNHITIRLCGFMQGLIGQYAVPILEEKSVWGTDAPTRVAYMDTQDIARLTLIALRNEKINGKLLTFAGPRAWTTQEVITLCERLAGQDANVTTVPVSVLRVTRQLTRFFQWTNDVADRLAFSEVLSSDTVFSAPMTETNSLLGVDQKDMVTLEKYLQDYFSNILKKLKDLKAQSKQSDIYF”, “failed”; that for “MASNEAGRALPKFGEWDVNDPATADGFTVIFSKAGEDKKTGRSSTKTNSQRKQDGDKPAVKKWLCFTFA”, “not failed”.
Under “MASNIILFEDIFVVDQLDPDGKKFDKVTRVQATSHNLEMFMHLDVNTEVYPLAVGDKFTLALAPTLNLDGTPDTGYFTPGAKKTLADKYEYIMHGKLYKISERDGKTPKAELYVSFGGLLMLLKGDPAHISHFELDQRLFLLMRKL” stands “failed”.
The result for “MASPDGSGSESFRTRRRRNRARFALAAVLTFILVAVGVLALVFYELRPVSLKIAVGPGGGDDLKLVQALAQSFARDRAAVRLVPLVTGGATPSIEAFRDHKADLAVTRADLDLPADAQAVAVLRKNVVVLWAPSSAGKGKKSIKTITDLAGRRVGVIGRTPANVKLFDIILAESGVAPDKVQKEQFATGQLAEMARDPSLDAFLAVGPLDSKITGEAIAATAKARGEPRFLPVDVGDAIAKKYPIYDSEEIPGSIFSTQPARPEDKVDTVSVNHLIVARQSLSSVTVTKLTRQIFAARQQIAREMPLAGKIEAPDTEKDAALPAHRGAAAFIDGTDRTFMERNSDYIWGLVLLLSGLGSAGAWFRSYLTRDEREAGAKMRDRALAMVAKARKAETLEALDALQHEIDKILRDTLDCYDDGAIEDLEPFSLVLEQFHHAVMDRRAALSASGPGLIPVDPATLPAAHA” reads “failed”; that for “MASPNTTQPEIILSEEKKASLTTQSTSNNTNDGNILEEQKTLTSQQQPTPVPNTERTEDNVIENLKKTDLSNKDENTTISINTSTNTNINSNTNSNTNTNINSNINTDVNTNINTDINTNTNSNTNSNTNTNINTNANTNTNTNEKAQDEKFQYNGDVSKAFLSPPVFHLTEIMHDERCFKKTKGHVTVEINGDICIYGGMLHDKCVENFIRYVPGINLFEKMRLNSNDIVPRAFCSGNVITEDNKKNIIIFGGINEKDEIVDETYKFDFQAKKWELIGNKICPRARYKHASFSFNDFLYIHGGLDVNNSLLADMWCFSKNSWTPIKQIDRIPEPRYAHSLIFSFYGNAKLVFLFGGNKKGYNAALGDTWIFNINTNRWKEITNSSGSKPCARWGHSSQLFDNEWMIIYGGITNGWIDNYALSDMYALNIFTFSWFEVDISTSKNFDRGYYGSLCFLPYKKSLFVFGGTDNSEDHSDVFSMSPLVTYVSYKTLTGKIEQLNTRMKNINETSSENENMNISEFETKITELKEDINKINFMMKDFESKFCGKIKKLEKLNEQCEKLLSKNINTEELQNLEQRIRKLETSNVLMKHDSI”, “failed”.
In the case of “MASRGLDLWLDEHVWKRKQEIGVKGENLLLPDLWLDFLQLSPIFQRKLAAVIACVRRLRTQATVYPEEDMCMAWARFCDPSDIKVVILGQDPYHGGQANGLAFSVAYGFPVPPSLRNIYAELHRSLPEFSPPDHGCLDAWASQGVLLLNTILTVQKGKPGSHADIGWAWFTDHVISLLSERLKACVFMLWGAKAGDKASLINSKKHLVLTSQHPSPLAQNSTRKSAQQKFLGNNHFVLANNFLREKGLGEIDWRL”, the protein production entry is given as “not failed”.
Under “MASRIIFLFSLLIMLGLATGLRGFSALLGFLAFLLLLIIVCQQYRRFLLLFLAILLFLCAWLYGVVQERQNETQLYPLVQSVEGTLISDPELDGDQFSATVKTTDGEKVLIRGRVQAEAEKDKLEMTQIGMVCSFVGQLEIPSEPTNPYQFNYRQFLDNNRIHWIFRTDLTQWQCSDQPTTLFMKVKRWRSEQLQDIYDLASDETAGLIAAFVYGDRSELDGELLSAYQSLGVIHLLAVSGLHVGLVVAAVFYLFIRLGVTRERAYELLLLFLPFYAIVAGAAPSVVRAVGMTMTVLLAFRFQKRLAPIIVLSLVAVIYIIIEPYAIFQLGFQLSFLTTCALLLSSSTLLQAINRPLLSLVKVTFLAQLISMPVILYHFFELPILSVPLNLLFVPVVSFVLLPLSFFVASSLLIHPGVAELPLFILEIIVPIVHQLLLVLNEQSFAAVVIGKPSLNSVFLMMISLIIGWAWLERKEPFKAWGAFSVVLFLIAWQIYSPYWSNEAIVTMIDVGQGDSFLIELPRRKAVYMIDTGGWVTYGEMEPWQERRNTRDIGEQVLTPILKGKGIRGIDKLILTHGHEDHFGGAEGLVRSIKVDEVVYGYKHAEYTEREMEVLSALKKAGASIRFVKSGDQWVIGSSSFRVLSPFGDEEELNDQSVVVYAVIEGVRFLFTGDLEEVGEKRLLEGYGDLKADVLKVGHHGSATSTTDPFLEAVHPVVALISAGRNNLYGHPNQDVLAALEQHETFVLRTDLHGAVKLTIRDGGIYARVMTTD” stands “failed”.
